Assays:
[1] = tested on: HIV-1 particle production; settings: by binding to IN within GagPol; cited from earlier work
[2] = molecular target: T1, IN-CTD (Human immunodeficiency virus type 1 group M subtype B, UniProt P04585); assay: Alpha proximity assay, binding of His6-SUMO-INI1183-304 to GST-CTD; parameters: species or system HIV-1
T1 construct: pGEX3x-IN and pGST-IN-CTD(aa 201-288) were used as templates; made in house; host or cells: bacteria (E. coli)
Protocol: FIG. 16A-FIG. 16H show quantitative Alpha protein-protein interaction assay to determine the interaction of IN, CTD, and the mutants with INI1 and INI1183-304. […] A titration curve was generated with increasing concentrations of His6-SUMO-INI1183-304 with two different fixed concentration of GST-CTD and the interactions were detected as Alpha Score. The KD values were determined by nonlinear regression analysis using specific binding with Hill slope analysis in GraphPad Prism. Data from one representative experiment is depicted. FIG. 16B and FIG. 16C show effect of salt on the interactions of GST-CTD either with His6-SUMO-INI1183-304 or biotinylated(Bio)-TAR RNA (n=3 independent experiments). The interaction was tested using fixed concentrations of GST-CTD (0.75 μM) and increasing concentrations of His6-SUMO-INI1183-304 (or Bio-TAR RNA) in two different NaCl conditions (100 and 500 mM). […] The IC50 values were determined by fitting the data to a four-parameter dose-response curve using GraphPad prism. […]
AlphaScreen proximity assay to detect the protein-protein and protein-RNA interactions. […] The Alpha score readings were measured using Alpha-compatible Envision 2105 multi-plate reader (Perkin-Elmer). All the experiments related to this method were carried out 3 to 5 times and data were analyzed by using Graph Pad Prism 9 version 9.0.0 (GraphPad Software, CA). […]

Row | Molecule | inhibition of HIV-1 particle production [1] | KD for binding, IN-CTD/INI1183-304 [2]
1 | S6: INI1 fragment (aa 183-294) harboring the Rpt1 domain, linker region and a part of Rpt2 (protein, UniProt Q12824 183-294, looked up, fragment) PEVLVPIRLDMEIDGQKLRDAFTWNMNEKLMTPEMFSEILCDDLDLNPLTFVPAIASAIRQQIESYPTDSILEDQSDQRVIIKLNIHVGNISLVDQFEWDMSEKENSPEKFA | trans-dominantly inhibits HIV-1 particle production | 
2 | INI1183-304: INI1 fragment aa 183-304 (Rpt1, linker, part of Rpt2), expressed as His6-SUMO fusion (protein, left off: large carriers, INI1 fragment aa 183-304 (Rpt1, linker, part of Rpt2), expressed as His6-SUMO fusion) PEVLVPIRLDMEIDGQKLRDAFTWNMNEKLMTPEMFSEILCDDLDLNPLTFVPAIASAIRQQIESYPTDSILEDQSDQRVIIKLNIHVGNISLVDQFEWDMSEKENSPEKFALKLCSELGLG |  | low nM

Source: patent US20240317826A1, “COMPOSITIONS AND METHODS FOR TREATING AND/OR I[…] AGENT FOR TREATING HIV-1 INFECTIONS” (priority 2021, published 2024)
